Numbering of substitutions follows the chain as printed. In names and notes the source's numbering stands. Where two headings read alike, the source gives them in different places.
B1: His6-NSF-D2 fragment (488-744) (domain or fragment, Chinese hamster (from CHO cells), UniProt P18708 488-744, looked up)
chain: IKPAFGTNQEDYASYIMNGIIKWGDPVTRVLDDGELLVQQTKNSDRTPLVSVLLEGPPHSGKTALAAKIAEESNFPFIKICSPDKMIGFSETAKCQAMKKIFDDAYKSQLSCVVVDDIERLLDYVPIGPRFSNLVLQALLVLLKKAPPQGRKLLIIGTTSRKDVLQEMEMLNAFSTTIHVPNIATGEQLLEALELLGNFKDKERTTIAQQVKGKKVWIGIKKLLMLIEMSLQMDPEYRVRKFLALLREEGASPLDFD
modifications: (Ni2+-NTA)2-Cy3 bound to the His6 tag (ultracentrifugation)
B2: His6-NSF-D1D2-myc fragment (206-744) (domain or fragment, Chinese hamster (from CHO cells), UniProt P18708 206-744, looked up)
chain: QSIINPDWNFEKMGIGGLDKEFSDIFRRAFASRVFPPEIVEQMGCKHVKGILLYGPPGCGKTLLARQIGKMLNAREPKVVNGPEILNKYVGESEANIRKLFADAEEEQRRLGANSGLHIIIFDEIDAICKQRGSMAGSTGVHDTVVNQLLSKIDGVEQLNNILVIGMTNRPDLIDEALLRPGRLEVKMEIGLPDEKGRLQILHIHTARMRGHQLLSADVDIKELAVETKNFSGAELEGLVRAAQSTAMNRHIKASTKVEVDMEKAESLQVTRGDFLASLENDIKPAFGTNQEDYASYIMNGIIKWGDPVTRVLDDGELLVQQTKNSDRTPLVSVLLEGPPHSGKTALAAKIAEESNFPFIKICSPDKMIGFSETAKCQAMKKIFDDAYKSQLSCVVVDDIERLLDYVPIGPRFSNLVLQALLVLLKKAPPQGRKLLIIGTTSRKDVLQEMEMLNAFSTTIHVPNIATGEQLLEALELLGNFKDKERTTIAQQVKGKKVWIGIKKLLMLIEMSLQMDPEYRVRKFLALLREEGASPLDFD
modifications: (Ni2+-NTA)2-Cy3 bound to the His6 tag (ultracentrifugation only)
B3: His6-NSF-myc (1-744), N-Ethylmaleimide Sensitive Factor, wild type (enzyme, Chinese hamster (from CHO cells), UniProt P18708 1-744, looked up)
chain: MAGRSMQAARCPTDELSLSNCAVVSEKDYQSGQHVIVRTSPNHKYIFTLRTHPSVVPGSVAFSLPQRKWAGLSIGQEIEVALYSFDKAKQCIGTMTIEIDFLQKKNIDSNPYDTDKMAAEFIQQFNNQAFSVGQQLVFSFNDKLFGLLVKDIEAMDPSILKGEPASGKRQKIEVGLVVGNSQVAFEKAENSSLNLIGKAKTKENRQSIINPDWNFEKMGIGGLDKEFSDIFRRAFASRVFPPEIVEQMGCKHVKGILLYGPPGCGKTLLARQIGKMLNAREPKVVNGPEILNKYVGESEANIRKLFADAEEEQRRLGANSGLHIIIFDEIDAICKQRGSMAGSTGVHDTVVNQLLSKIDGVEQLNNILVIGMTNRPDLIDEALLRPGRLEVKMEIGLPDEKGRLQILHIHTARMRGHQLLSADVDIKELAVETKNFSGAELEGLVRAAQSTAMNRHIKASTKVEVDMEKAESLQVTRGDFLASLENDIKPAFGTNQEDYASYIMNGIIKWGDPVTRVLDDGELLVQQTKNSDRTPLVSVLLEGPPHSGKTALAAKIAEESNFPFIKICSPDKMIGFSETAKCQAMKKIFDDAYKSQLSCVVVDDIERLLDYVPIGPRFSNLVLQALLVLLKKAPPQGRKLLIIGTTSRKDVLQEMEMLNAFSTTIHVPNIATGEQLLEALELLGNFKDKERTTIAQQVKGKKVWIGIKKLLMLIEMSLQMDPEYRVRKFLALLREEGASPLDFD
modifications: (Ni2+-NTA)2-Cy3 bound to the His6 tag (ultracentrifugation only; 1 mole of dye per mole of NSF hexamer)
B4: His6-NSF-R67A-myc (enzyme, Chinese hamster (from CHO cells), UniProt P18708 1-744, looked up)
chain: B3 chain with R67A
modifications: (Ni2+-NTA)2-Cy3 bound to the His6 tag (ultracentrifugation)
B5: His6-NSF-L441A-myc (enzyme, Chinese hamster (from CHO cells), UniProt P18708 1-744, looked up)
chain: B3 chain with L441A
modifications: (Ni2+-NTA)2-Cy3 bound to the His6 tag (ultracentrifugation)

Key:
[1] = molecular target: the molecule itself; experiment: AUC
[2] = molecular target: the molecule itself; experiment: AUC; remark: listed apart in the source
[3] = molecular target: the molecule itself; experiment: negative-stain electron microscopy, single particle analysis

Protein | % Hexamer [1] [%] | % Hexamer [2] [%] | stoichiometry N [3]
B1 | 10.3 ± 0.63 | 28.8 ± 1.92 | –
B2 | 14.1 ± 0.31 | 44 ± 2.93 | 6
B3 | 47 ± 3.7 | 62 ± 5.74 | 6
B4 | 38.7 ± 4.21 | 55.6 ± 12.5 | –
B5 | 34.2 ± 2.78 | 34.4 ± 1.06 | –
